According to US20090042785A1 (Pieris, published 2009):
Where a chain is given by its changes, count along the chain named. Numbers in names are those of the source.

B1: hNGAL mutein F92.1-J08 (designed binder)
chain: QDSTSDLIPAPPLSKVPLQQNFQDNQFHGKWYVVGLAGNRILRDDQHPMNMYATIYELKEDKSYNVTSVIFPHKKCEYTIATFVPGSQPGEFTLGNIKSYGDKTSYLVRVVSTNYNQYAVVFFKLAEDNAEFFAITIYGRTKELASELKENFIRFSKSLGLPENHIVFPVPIDQCIDGSAWSHPQF
notes: also called CTLA-4-J08
B2: hNGAL mutein S140.2-P24 (designed binder)
chain: QDSTSDLIPAPPLSKVPLQQNFQDNQFHGKWYVVGLAGNRILRDDQHPMDMYATIYELKEDKSYNVTSVISSHKKCEYTIATFVPGSQPGEFTLGNIKSYGDKTSYLVRVVSTDYSQYAVVFFKLAEDNAEFFAITIYGRTKELASELKENFIRFSKSLGLPENHIVFPVPIDQCIDG
notes: tagged entry not tied to the name; not shown: N-terminal T7 detection tag from vector phNGAL37; C-terminal Strep-tag II from vector phNGAL37
B3: hNGAL mutein S140.1-F09 (designed binder)
chain: B2 chain with D50N, D114N, S116N
notes: as for B2
B4: hNGAL mutein S67.3-C21 (designed binder)
chain: QDSTSDLIPAPPLSKVPLQQNFQDNQFHGKWYVVGLAGNYIWRNDRYPMQMYATIYELKEDKSYNVTSVIFDTKKCEYPIATFVPGSQPGEFTLGNIKSYRMDTSYLVRVVSTNYNQHAMVFFKQVNHNTEHFAITIYGRTKELASELKENFIRFSKSLGLPENHIVFPVPIDQCIDGSAWSHPQF
B5: hNGAL mutein S109.6-J11 (designed binder)
chain: B1 chain with I80F, Y118H, V120T, I135V
B6: hNGAL mutein S109.5-L04 (designed binder)
chain: B1 chain with Q46R, Y118H, V120T
B7: hNGAL mutein S109.4-A15 (designed binder)
chain: B1 chain with N50D, Y118H, V120T
B8: hNGAL mutein S107.4-C16 (designed binder)
chain: B1 chain with Y118H, V120M, K124E, A126V, E131G
B9: hNGAL mutein S67.2-F03 (designed binder)
chain: B1 chain with Y118H, V120M, A126V
B10: hNGAL mutein S106.1-N15 (designed binder)
chain: B1 chain with V34L, Y118H, V120M
B11: hNGAL mutein S106.3-K20 (designed binder)
chain: B1 chain with Y118H, K124Q, A126V, E131G
B12: hNGAL mutein S106.3-O19 (designed binder)
chain: B1 chain with Y78H, N114D, Y118H, V120M, K124E, A126V, E131G
B13: hNGAL mutein S94.2-F05 (designed binder)
chain: B1 chain with V120M, I135V
B14: hNGAL mutein S109.5-L23 (designed binder)
chain: B1 chain with N65D, I80T, D102G, Y118H, V120T, E127G
B15: S140.4-O10 with a free cystein residue at position 87 (designed binder)
chain: QDSTSDLIPAPPLSKVPLQQNFQDNQFHGKWYVVGLAGNRILRDDQHPMNMYATIYELKEDKSYNVTSVISSHKKCEYTIATFVPGCQPGEFTLGNIKSYGDKTSYLVRVVSTDYNQYAVVFFKLAEDNAEFFAITIYGRTKELASELKENFIRFSKSLGLPENHIVFPVPIDQCIDGSAWSHPQFEK
notes: Not PEGylated; also called O10_S87C; S87C variant
B16: S140.4-O10_A145C (designed binder)
chain: B2 chain with D50N, S116N, A145C
notes: Produced from phNGAL15 without the T7 tag
B17: S140.4-O10_V84C (designed binder)
chain: B2 chain with D50N, V84C, S116N
notes: as for B16
B18: S140.4-O10_N116 (designed binder)
chain: B2 chain with D50N, S116C
notes: Produced from phNGAL15 without the T7 tag; also called O10_N116C
B19: S140.4-O10_S158C (designed binder)
chain: B2 chain with D50N, S116N, S158C
notes: as for B16
B20: S140.4-O10_E143C (designed binder)
chain: B2 chain with D50N, S116N, E143C
notes: as for B16
B21: S140.4-O10_T141C (designed binder)
chain: B2 chain with D50N, S116N, T141C
notes: as for B16
B22: S140.4-O10_S146C (designed binder)
chain: B2 chain with D50N, S116N, S146C
notes: as for B16
B23: S140.4-O10_N21C (designed binder)
chain: B2 chain with N21C, D50N, S116N
notes: as for B16
B24: S140.4-O10_S14C (designed binder)
chain: B2 chain with S14C, D50N, S116N
notes: as for B16
B25: S140.4-O10_E60C (designed binder)
chain: B2 chain with D50N, E60C, S116N
notes: as for B16
B26: S140.4-O10_Q88C (designed binder)
chain: B2 chain with D50N, Q88C, S116N
notes: as for B16
B27: S140.4-O10_S146C PEGylated with 12k PEG-maleimide (designed binder)
chain: B2 chain with D50N, S116N, S146C
modifications: 12k PEG-maleimide on Cys 146
notes: also called O10_S146C PEGylated monomer
B28: S140.4-O10_V84C PEGylated with 12k PEG-maleimide (designed binder)
chain: B2 chain with D50N, V84C, S116N
modifications: 12k PEG-maleimide on Cys 84
notes: also called O10_V84C PEGylated monomer
B29: S140.4-O10_T141C PEGylated with 12k PEG-maleimide (designed binder)
chain: B2 chain with D50N, S116N, T141C
modifications: 12k PEG-maleimide on Cys 141
notes: also called O10_T141C PEGylated monomer
B30: S140.4-O10_A145C PEGylated with 12k PEG-maleimide (designed binder)
chain: B2 chain with D50N, S116N, A145C
modifications: 12k PEG-maleimide on Cys 145
notes: also called O10_A145C PEGylated monomer
B31: S140.4-O10_E143C PEGylated with 12k PEG-maleimide (designed binder)
chain: B2 chain with D50N, S116N, E143C
modifications: 12k PEG-maleimide on Cys 143
notes: also called O10_E143C PEGylated monomer

Molecular target: T1, human CTLA-4-Fc (Chimerigen) (human, UniProt P16410 36-161; P01857 99-330 = IgG part, limits assumed)
T1 construct: extracellular domain;domain: Fc portion; Bought protein; also called hCTLA-4-Fc; huCTLA-4-Ig
T1 sequence (P16410 other isoform, or with tags, fused parts or gaps mutant limits assumed): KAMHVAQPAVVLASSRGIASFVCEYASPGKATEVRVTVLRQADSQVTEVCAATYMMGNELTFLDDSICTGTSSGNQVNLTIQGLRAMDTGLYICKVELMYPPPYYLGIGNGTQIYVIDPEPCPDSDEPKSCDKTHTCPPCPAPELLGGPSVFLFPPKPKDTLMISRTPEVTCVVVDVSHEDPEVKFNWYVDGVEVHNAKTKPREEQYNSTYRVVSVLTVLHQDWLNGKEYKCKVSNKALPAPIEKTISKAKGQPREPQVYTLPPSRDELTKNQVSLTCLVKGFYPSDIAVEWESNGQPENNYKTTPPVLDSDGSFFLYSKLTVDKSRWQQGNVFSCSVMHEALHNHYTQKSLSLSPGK
Experiment: SPR as in Example 9

Binder	Kd	koff	kon
B1	12.8 nM	0.000116 s⁻¹	9240 M⁻¹ s⁻¹
B2	20 nM	0.00028 s⁻¹	14000 M⁻¹ s⁻¹
B3	7.8 nM	~9.2e-05 s⁻¹	11800 M⁻¹ s⁻¹

Molecular target: T2, mCTLA-4-Fc (R&D Systems) (mouse, UniProt P09793 36-162)
T2 sequence (P09793 whole entry): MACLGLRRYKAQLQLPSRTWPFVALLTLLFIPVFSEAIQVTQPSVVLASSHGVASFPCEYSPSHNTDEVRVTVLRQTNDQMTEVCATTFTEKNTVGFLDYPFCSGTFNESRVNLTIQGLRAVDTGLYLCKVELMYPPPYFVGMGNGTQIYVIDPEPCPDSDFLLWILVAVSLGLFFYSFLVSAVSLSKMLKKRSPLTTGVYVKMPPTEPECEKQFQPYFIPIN
Experiment: SPR as in Example 9

Binder	Kd	koff	kon
B2	47 nM	0.000705 s⁻¹	15000 M⁻¹ s⁻¹
B3	27.9 nM	0.000379 s⁻¹	14000 M⁻¹ s⁻¹

Molecular target: T1, human CTLA-4-Fc (Chimerigen)
Experiment: SPR; KD listed beside Tm

Binder	Kd
B1	12.8 nM
B2	20 nM
B3	7.8 nM

Molecular target: T2, mCTLA-4-Fc (R&D Systems)
Experiment: SPR; KD listed beside Tm

Binder	Kd
B2	47 nM
B3	27.9 nM

Molecular target: T1, human CTLA-4-Fc (Chimerigen)
Experiment: SPR, Fc fusion captured via anti-human IgG Fc

Binder	Kd	koff	kon
B4	20 nM	0.00033 s⁻¹	16000 M⁻¹ s⁻¹
B1	12.8 nM	0.000116 s⁻¹	9240 M⁻¹ s⁻¹
B5	20 nM	–	–
B6	29 nM	–	–
B7	26 nM	–	–
B8	28 nM	–	–
B9	47.1 nM	0.00033 s⁻¹	7030 M⁻¹ s⁻¹
B10	43 nM	–	–
B11	29 nM	–	–
B12	22 nM	–	–
B13	18 nM	–	–

Molecular target: T2, mCTLA-4-Fc (R&D Systems)
Experiment: SPR, Fc fusion captured via anti-human IgG Fc

Binder	Kd	koff	kon
B4	6800 nM	0.098 s⁻¹	14500 M⁻¹ s⁻¹
B5	47 nM	–	–
B6	42 nM	–	–
B8	275 nM	–	–
B9	198 nM	0.00089 s⁻¹	4500 M⁻¹ s⁻¹
B10	110 nM	–	–
B11	300 nM	–	–
B14	19 nM	–	–
B12	135 nM	–	–
B13	65 nM	–	–

Molecular target: T1, human CTLA-4-Fc (Chimerigen)
Experiment: SPR-Affinity of the monomer towards hCTLA-4-Fc

Binder	Kd
B15	6 nM
B16	6 nM
B17	15 nM
B18	10 nM
B19	13 nM
B20	15 nM
B21	4 nM
B22	9 nM
B23	32 nM
B24	13 nM
B25	24 nM
B26	15 nM

Molecular target: T1, human CTLA-4-Fc (Chimerigen)
Experiment: SPR-Affinity of the PEGylated monomer towards hCTLA-4-Fc

Binder	Kd
B27	50 nM
B28	97 nM
B29	69 nM
B30	50 nM
B31	85 nM

Molecular target: T1, human CTLA-4-Fc (Chimerigen)
Experiment: Affinity-ELISA of the PEGylated monomer towards hCTLA-4-Fc

Binder	ELISA-Affinity PEGylated Monomer
B27	100 nM
B28	100 nM
B29	82 nM
B30	74 nM
B31	103 nM
